Patent US20140010886A1, “COMPOSITIONS COMPRISING SACCHARIDE BINDING MOIETIES AND METHODS FOR TARGETED THERAPY” (GEORGIA TECH RESEARCH CORPORATION, priority 2011, published 2014)

B1: PNA: lectin peanut agglutinin, recognizes the glycan moiety GalNAc (protein, UniProt P02872 24-273, looked up)
Galactose-binding lectin: AETVSFNFNSFSEGNPAINFQGDVTVLSNGNIQLTNLNKVNSVGRVLYAMPVRIWSSATGNVASFLTSFSFEMKDIKDYDPADGIIFFIAPEDTQIPAGSIGGGTLGVSDTKGAGHFVGVEFDTYSNSEYNDPPTDHVGIDVNSVDSVKTVPWNSVSGAVVKVTVIYDSSTKTLSVAVTNDNGDITTIAQVVDLKAKLPERVKFGFSASGSLGGRQIHLIRSWSFTSTLITTTRRSIDNNEKKIMNMASA
B2: ECL: erythrina cristagalli lectin, recognizes the glycan moiety GlcNAc (protein, listed as Homo sapiens)
chain: VETISFSFSEFEPGNNDLTLQGAAIITQSGVLQLTKINQNGMPAWDSTGRTLYTKPVHIWDMTTGTVASFETRFSFSIEQPYTRPLPADGLVFFMGPTKSKPAQGYGYLGVFNNSKQDNSYQTLAVEFDTFSNPWDPPQVPHIGIDVNSIRSIKTQPFQLDNGQVANVVIKYDASSKILLAVLVYPSSGAIYTIAEIVDVKQVLPEWVDVGLSGATGAQRDAAETHDVYSWSFHASLPETND

Legend:
[1] = test system: DBA positive sorted cells (CTB-1 GBM-CSCs); experiment: Lectin reactivity of DBA positive sorted GBM-CSCs (flow cytometry); format: binding, human; settings: for lectin reactivity of DBA positive sorted cells: day 1; for lectin reactivity of DBA positive sorted cells by day 12: day 12 of differentiation
Text: The percent of cells with specific carbohydrate expression as determined by flow cytometry using 8 different lectins. The data are means+/−SD of 3 independent assays of CTB-1 GBM-CSCs. CTB-1 cell line was stained with CD133, OCT4, and SOX2 antibody in addition to lectin staining Statistical significance (p≦0.05) is indicated by asterisk.
DBA lectin positive cells made up less than 1% of the total population and phenotypically appeared to proliferate at a much slower rate than the DBA negative population. […] Increased proliferation in DBA negative populations can be visualized via microscopy at day 1 and day 12 (FIG. 7). At day 12 the DBA negative population appears to be denser than the DBA positive population (FIG. 7), however, both populations are able to produce GFAP positive cells (Astrocytes) identical to the CD133 positive sorted cells (FIG. 7). […] DBA negative sorted cells contradict the aforementioned, and show low reaction towards GalNAc and GlcNAc recognizing lectins and this continues to decrease by day 12 (FIG. 8B). Con A remains high throughout in both populations and serves as a positive control (FIGS. 8A and 8B). However, GBM-CSC marker CD133-G and general stem cell markers OCT 4 and SOX 2 are high in the DBA positive sorted cells, and similar to DBA reactivity, decreases substantially by day 12 of differentiation (FIG. 8A). However, in the DBA negative population these stem cell markers uniformly are low at day one and are almost non-existent by day 12 (FIG. 8A). Until now CD133 has been considered the only marker for CSCs derived from GBM brain tumors. However, using cell sorting technology, DBA lectin, which recognizes GalNAc, we were able to separate CD133^+ cells from CD133− cells.

[2] = test system: CD133+ GBM-CSCs; experiment: Lectin panel labeling of CD133+ GBM-CSCs during differentiation (flow cytometry); format: binding, human; settings: for recognition of GBM-CSCs by lectin after differentiation: after 12 days of differentiation; for recognition of undifferentiated GBM-CSCs by lectin: day 1, undifferentiated CD133+ GBM-CSCs
Protocol: The fact that lectin moieties recognize carbohydrates located on the surface of cells makes them a great tool to identify changes in glycosylation patterning during differentiation. We used a panel of 20 lectins to study the patterning of CD133^+ GBM-CSCs surface glycosylation during differentiation (Table 1). Neurospheres derived from CD133^+ GBM-CSCs were grown as mentioned above and were plated onto polyornithin and laminin coated tissue culture grade plastics. Within 10 hours the neuroshperes adhered and neurite formations were observed. Differentiation continued for 12 days, and harvested cells (day 1 and day 12) were labeled with our panel of lectins (FIG. 2A). […] Furthermore, the recognition and decrease in recognition of GalNAc and GlcNAc coincide with the expression of GBM-CSC marker CD133-glycosylation (CD133-G) and general stem cell markers OCT 4 and SOX2 (FIG. 3C). OCT 4 and SOX2 have been well studied in GBMs and are accepted indicators of sternness in GBM cell lines.

Row | Molecule | lectin reactivity of DBA positive sorted cells [1] | lectin reactivity of DBA positive sorted cells by day 12 [1] | recognition of GBM-CSCs by lectin after differentiation [2] | recognition of undifferentiated GBM-CSCs by lectin [2]
1 | SBA: lectin soybean agglutinin, recognizes the glycan moiety GalNAc | high reactivity | decrease | markedly decreased | highly recognized
2 | B1 | high reactivity | decrease | markedly decreased | highly recognized
3 | B2 | highly reactive | decreased | noticeably decreased | highly recognized
